Results taken from patent US20170088616A1 (Kyowa Kirin, published 2017).

Legend:
[1] = molecular target: T1, Mucin chimeraTIM-3 (human TIM-3 with the mucin domain substituted for mouse TIM-3) (human/mouse chimera); assay: flow cytometry, transfected HEK293F cells
T1 construct: expressed on HEK293F cells

[2] = molecular target: T2, human TIM-3 (human, UniProt Q8TDQ0 22-301); assay: flow cytometry, Alexa-647 labeled antibody on human TIM-3 EoL-1 cells pre-bound with 10 ug/ml unlabeled competitor: 644
T2 construct: endogenous on Daudi cells in the ADCC test; also called HAVCR2; hTIM-3

[3] = molecular target: T2, human TIM-3; assay: flow cytometry, Alexa-647 labeled antibody on human TIM-3 EoL-1 cells pre-bound with 10 ug/ml unlabeled competitor: anti-DNP (negative control)

B1: antibody 512 (antibody, V domains shown)
VH: QVQLVESGGGVVQPGRSLRLSCAASGFTFNSYGMHWVRQAPGKGLEWVAVIWYDGSNKYYGDSVKGRFTISRDNSKNTLYLQMNSLRAEDTAVYYCAIWFGEMFSEYFQHWGQGTLVTVSS
VL: AIQLTQSPSSLSASVGDRVTITCRASQGISSALAWYQQKPGKAPKLLIYDASSLESGVPSRFSGSGSGTDFTLTISSLQPEDFATYYCQQFNSYPLTFGGGTKVEIKR
notes: Hybridoma isotype IgG1; recombinant form has human IgG1 constant region and kappa chain, made in FUT8-/- CHO cells (defucosylated)
binding result [1]: binds | binding result [2]: binds

B2: antibody 644 (antibody, V domains shown)
VH: QVQLVESGGGLVKPGGSLRLSCAASGFTFSDYYMSWIRQAPGKGLEWVSFISSSGSIIYYADSVKGRFTISRDNAKNSLYLQMNSLRAEDTAVYYCARDGYSSSWYYYGMDVWGQGTTVTVSS
VL: not shown
notes: Hybridoma isotype IgG4; recombinant form has human IgG1 constant region and kappa chain, made in FUT8-/- CHO cells (defucosylated)
binding result [1]: binds | binding result [3]: binds

B3: antibody 4545 (antibody, V domains shown)
VH: QVQLQESGPGLVKPSETLSLTCTVSGGSFSRGGYYWNWIRQPPGKGLEWIGYIYYSGSTNYNPSLKSRVTISLDTSKNQFSLKLSSVTAADTAVYYCARDHYSSSWTFDYWGQGTLVTVSS
VL: EIVLTQSPATLSLSPGERATLSCRASQSVSSYLAWYQQKPGQAPRLLIYDASNRATGIPARFSGSGSGTDFTLTISSLEPEDFAVYYCQQRSNWPPTFGQGTKLEIK
notes: Hybridoma isotype IgG2; recombinant form has human IgG1 constant region and kappa chain, made in FUT8-/- CHO cells (defucosylated)
binding result [1]: binds | binding result [3]: binds

B4: antibody 8213 (antibody, V domains shown)
VH: QVQLQQPGAELVKPGASVKLSCKASGYTFTSYWMHWVKQRPGQGLEWIGEINPSNGRTNYNEKFKTKATLTVDKSSSTAYMQLSSLTSEDSAVYYCAGGYYLYFDYWGQGTTLTVSS
VL: DILMTQSPSSMSVSLGDTVNITCHASQGIRINIGWLQQKPGKSFKGLIYHGTNLEDGVPSRFSGSGSGPDYSLTISSLESEDFADYYCVQYGQFPWTFGGGTKLEMK
notes: Hybridoma isotype mouse IgG2b; recombinant form has mouse IgG2a constant region and kappa chain, made in HEK293F cells
binding result [1]: binds | binding result [3]: binds
